From the supplement of paper PMC9112550, “Optimization of the antimicrobial peptide Bac7 by deep mutational scanning” (BMC Biology, 2022)

System: Escherichia coli TOP10
Assay: shrunken log2 fold change of peptide-encoding DNA abundance (4.5 h post-induction vs induction); higher = less antimicrobial activity (less host growth inhibition)
Conditions: time post-induction: 4.5 h; library: site-saturation at positions 5, 18, 19, 20
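Also: peptides expressed intracellularly from a pBAD plasmid library in pooled LB shake-flask culture, induced with 0.3% L-arabinose, DNA abundance read by NGS, three biological replicates, DESeq2 with apeglm shrinkage.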

How did the “shrunken log2 fold change” value turn out when RRIRPRPPRLPRPRPRPVGKPRP was run?
The value was -0.00576.

For RRIRPRPPRLPRPRPRPVGYPRP, which “shrunken log2 fold change” value is on record?
Its value is 0.394.

RRIRPRPPRLPRPRPRPVHGPRP was tested. Which “shrunken log2 fold change” value did it give?
The value was 0.0843.

RRIRPRPPRLPRPRPRPVHHPRP was tested. Which “shrunken log2 fold change” value did it give?
Its value is -0.218.

With RRIRPRPPRLPRPRPRPVHPPRP as the sequence, how does the “shrunken log2 fold change” value read?
The value was 0.127.

With RRIRPRPPRLPRPRPRPVIKPRP as the sequence, how does the “shrunken log2 fold change” value read?
The value was -0.215.

With RRIRPRPPRLPRPRPRPVIMPRP as the sequence, how does the “shrunken log2 fold change” value read?
Its value is -0.634.

RRIRPRPPRLPRPRPRPVIWPRP was tested. Which “shrunken log2 fold change” value did it give?
Its value is -0.0495.

For RRIRPRPPRLPRPRPRPVLMPRP, which “shrunken log2 fold change” value is on record?
Its value is -0.161.

RRIRPRPPRLPRPRPRPVLTPRP was tested. Which “shrunken log2 fold change” value did it give?
Its value is 0.0816.

With RRIRPRPPRLPRPRPRPVMVPRP as the sequence, how does the “shrunken log2 fold change” value read?
Its value is 0.171.

Which “shrunken log2 fold change” value does the source give for RRIRPRPPRLPRPRPRPVNDPRP here?
The value was -0.106.

RRIRPRPPRLPRPRPRPVQDPRP was tested. Which “shrunken log2 fold change” value did it give?
The value was -0.0784.

For RRIRPRPPRLPRPRPRPVSDPRP, which “shrunken log2 fold change” value is on record?
The value was -0.0922.

With RRIRPRPPRLPRPRPRPVTAPRP as the sequence, how does the “shrunken log2 fold change” value read?
The value was 0.385.

How did the “shrunken log2 fold change” value turn out when RRIRPRPPRLPRPRPRPVTGPRP was run?
Its value is -0.0902.

For RRIRPRPPRLPRPRPRPVTMPRP, which “shrunken log2 fold change” value is on record?
Its value is -0.297.

RRIRPRPPRLPRPRPRPVVPPRP was tested. Which “shrunken log2 fold change” value did it give?
The value was 0.134.

Which “shrunken log2 fold change” value does the source give for RRIRPRPPRLPRPRPRPVWLPRP here?
The value was 0.577.

RRIRPRPPRLPRPRPRPVWPPRP was tested. Which “shrunken log2 fold change” value did it give?
The value was 0.341.

Which “shrunken log2 fold change” value does the source give for RRIRPRPPRLPRPRPRPWAPPRP here?
Its value is 0.153.

Which “shrunken log2 fold change” value does the source give for RRIRPRPPRLPRPRPRPWATPRP here?
The value was -0.213.

Which “shrunken log2 fold change” value does the source give for RRIRPRPPRLPRPRPRPWAYPRP here?
The value was -0.0727.

RRIRPRPPRLPRPRPRPWCVPRP was tested. Which “shrunken log2 fold change” value did it give?
Its value is -0.133.

Which “shrunken log2 fold change” value does the source give for RRIRPRPPRLPRPRPRPWDEPRP here?
The value was -0.151.

For RRIRPRPPRLPRPRPRPWEPPRP, which “shrunken log2 fold change” value is on record?
The value was 0.0548.

For RRIRPRPPRLPRPRPRPWFMPRP, which “shrunken log2 fold change” value is on record?
The value was -0.18.

For RRIRPRPPRLPRPRPRPWFPPRP, which “shrunken log2 fold change” value is on record?
Its value is -0.215.

For RRIRPRPPRLPRPRPRPWFQPRP, which “shrunken log2 fold change” value is on record?
The value was -0.21.

With RRIRPRPPRLPRPRPRPWFWPRP as the sequence, how does the “shrunken log2 fold change” value read?
Its value is 0.281.

RRIRPRPPRLPRPRPRPWGPPRP was tested. Which “shrunken log2 fold change” value did it give?
The value was 0.368.

RRIRPRPPRLPRPRPRPWHAPRP was tested. Which “shrunken log2 fold change” value did it give?
Its value is -0.0857.

With RRIRPRPPRLPRPRPRPWIYPRP as the sequence, how does the “shrunken log2 fold change” value read?
Its value is -0.584.

Which “shrunken log2 fold change” value does the source give for RRIRPRPPRLPRPRPRPWKDPRP here?
Its value is -0.0368.

How did the “shrunken log2 fold change” value turn out when RRIRPRPPRLPRPRPRPWLEPRP was run?
The value was -0.0732.

RRIRPRPPRLPRPRPRPWLFPRP was tested. Which “shrunken log2 fold change” value did it give?
Its value is -0.0483.

Which “shrunken log2 fold change” value does the source give for RRIRPRPPRLPRPRPRPWLLPRP here?
Its value is -0.111.

How did the “shrunken log2 fold change” value turn out when RRIRPRPPRLPRPRPRPWLYPRP was run?
The value was -0.0765.

With RRIRPRPPRLPRPRPRPWMEPRP as the sequence, how does the “shrunken log2 fold change” value read?
Its value is -0.0134.

Which “shrunken log2 fold change” value does the source give for RRIRPRPPRLPRPRPRPWMLPRP here?
Its value is -0.168.

With RRIRPRPPRLPRPRPRPWMSPRP as the sequence, how does the “shrunken log2 fold change” value read?
The value was -0.166.

How did the “shrunken log2 fold change” value turn out when RRIRPRPPRLPRPRPRPWNHPRP was run?
Its value is -0.485.

With RRIRPRPPRLPRPRPRPWNIPRP as the sequence, how does the “shrunken log2 fold change” value read?
Its value is -0.00871.

With RRIRPRPPRLPRPRPRPWNNPRP as the sequence, how does the “shrunken log2 fold change” value read?
The value was -0.561.

Which “shrunken log2 fold change” value does the source give for RRIRPRPPRLPRPRPRPWNWPRP here?
Its value is 0.3.

With RRIRPRPPRLPRPRPRPWPCPRP as the sequence, how does the “shrunken log2 fold change” value read?
Its value is 0.0872.

For RRIRPRPPRLPRPRPRPWPTPRP, which “shrunken log2 fold change” value is on record?
The value was 0.438.

Which “shrunken log2 fold change” value does the source give for RRIRPRPPRLPRPRPRPWRRPRP here?
The value was 0.142.

Which “shrunken log2 fold change” value does the source give for RRIRPRPPRLPRPRPRPWSPPRP here?
The value was 0.121.

How did the “shrunken log2 fold change” value turn out when RRIRPRPPRLPRPRPRPWSRPRP was run?
The value was 0.298.

RRIRPRPPRLPRPRPRPWTAPRP was tested. Which “shrunken log2 fold change” value did it give?
Its value is -0.305.

Which “shrunken log2 fold change” value does the source give for RRIRPRPPRLPRPRPRPWTQPRP here?
Its value is -0.0236.

For RRIRPRPPRLPRPRPRPWWDPRP, which “shrunken log2 fold change” value is on record?
Its value is -0.204.

How did the “shrunken log2 fold change” value turn out when RRIRPRPPRLPRPRPRPWWNPRP was run?
The value was -0.227.

For RRIRPRPPRLPRPRPRPWYAPRP, which “shrunken log2 fold change” value is on record?
The value was -0.107.

How did the “shrunken log2 fold change” value turn out when RRIRPRPPRLPRPRPRPWYCPRP was run?
The value was -0.111.

RRIRPRPPRLPRPRPRPYAIPRP was tested. Which “shrunken log2 fold change” value did it give?
Its value is -0.219.

RRIRPRPPRLPRPRPRPYAMPRP was tested. Which “shrunken log2 fold change” value did it give?
The value was -0.265.

How did the “shrunken log2 fold change” value turn out when RRIRPRPPRLPRPRPRPYCMPRP was run?
The value was -0.505.

For RRIRPRPPRLPRPRPRPYCQPRP, which “shrunken log2 fold change” value is on record?
Its value is -0.223.

How did the “shrunken log2 fold change” value turn out when RRIRPRPPRLPRPRPRPYCYPRP was run?
Its value is -0.798.

Which “shrunken log2 fold change” value does the source give for RRIRPRPPRLPRPRPRPYDRPRP here?
Its value is -0.319.

Which “shrunken log2 fold change” value does the source give for RRIRPRPPRLPRPRPRPYDSPRP here?
Its value is -0.977.

How did the “shrunken log2 fold change” value turn out when RRIRPRPPRLPRPRPRPYFNPRP was run?
Its value is -0.619.

RRIRPRPPRLPRPRPRPYGCPRP was tested. Which “shrunken log2 fold change” value did it give?
Its value is -0.0896.

With RRIRPRPPRLPRPRPRPYGIPRP as the sequence, how does the “shrunken log2 fold change” value read?
The value was -0.533.

How did the “shrunken log2 fold change” value turn out when RRIRPRPPRLPRPRPRPYHPPRP was run?
The value was -0.246.

For RRIRPRPPRLPRPRPRPYMAPRP, which “shrunken log2 fold change” value is on record?
The value was -1.07.

For RRIRPRPPRLPRPRPRPYNDPRP, which “shrunken log2 fold change” value is on record?
The value was -0.723.

For RRIRPRPPRLPRPRPRPYNQPRP, which “shrunken log2 fold change” value is on record?
Its value is -0.429.

With RRIRPRPPRLPRPRPRPYPGPRP as the sequence, how does the “shrunken log2 fold change” value read?
Its value is -0.159.

With RRIRPRPPRLPRPRPRPYPNPRP as the sequence, how does the “shrunken log2 fold change” value read?
Its value is -0.159.

For RRIRPRPPRLPRPRPRPYPWPRP, which “shrunken log2 fold change” value is on record?
Its value is -0.345.

With RRIRPRPPRLPRPRPRPYRIPRP as the sequence, how does the “shrunken log2 fold change” value read?
The value was -0.384.

RRIRPRPPRLPRPRPRPYTHPRP was tested. Which “shrunken log2 fold change” value did it give?
The value was -1.35.
